{"source": "patent US5484732", "about": "“Transcription factor for regulation of the development of skin and hair” (The Regents of the University of California, dated 1996)", "proteins": {"B1": {"name": "Δ32 Skn-1i (other)", "chain": "LQPNLLSFPQQQSTLLLPQTGPGLTSQAVGRPGLSGSSLEPHLEASQHLPGPKHLPGPGGNDEPTDLEELEKFAKTFKQRRIKLGFTQGDVGLAMGKLYGNDFSQTTISRFEALNLSFKNMCKLKPLLEKWLNDAESSPADPSASTPSSYPTLSEVFGRKRKKRTSIETNIRLTLEKRFQDNPKPSSEEISMIAEQLSMEKEVVRVWFCNRRQKEKRINCPVATPVKPPIYNSRLVSPSGSLGSLSVPPVHSTMPGTVTSSCSPGNNSRPSSPGSGLHASSPTASQNNSKAAMNPSSAAFNSSGSWYRWNHPAYLH"}}, "target": "the molecule itself", "assay": "DSS crosslinking in solution of 35S-labelled protein translated in vitro, SDS/polyacrylamide gel (self-association)", "experimental": "With respect to (1), the effect of the Skn-1i inhibitory region on dimerization in solution was assayed by the ability of a homobifunctional crosslinking agent [disuccnidyl suberate (DSS)] to crosslink in vitro translated proteins.\nSpecifically, approximately 100,000 cpm of ^35S-labeled Skn-1i, Δ32Skn-1i, 1–99 (N/T) Skn1-i and Δ60 (N/T) Skn1-i proteins were added separately to […] of binding buffer (10 mM HEPES [pH7.8], 50 mM K CI, 5% glycerol). After 15 minutes at room temperature, […] of DSS (suspended in 5 mg/ml DMSO) or DMSO alone was added to each of the reactions. After 5 minutes, the reaction was stopped by adding SDS sample buffer to each which was then boiled prior to analyses on SDS/polyacrylamide gels. To quantitate crosslinking efficiency, monomers (\"M\" on FIG. 12) and dimers (\"D\" on FIG. 12) were excised from the gel and counted by scintillation counting."}
{"protein": "B1", "values": [{"measurement": "binding result", "result": "no binding"}]}
